The values below come from article PMC5424160 (2017).

In the assay the target is GST-CDK9 (Homo sapiens (Human), UniProt P50750). The assay is described as follows: GST pull-down.
Sequence of GST-CDK9 (P50750 whole entry): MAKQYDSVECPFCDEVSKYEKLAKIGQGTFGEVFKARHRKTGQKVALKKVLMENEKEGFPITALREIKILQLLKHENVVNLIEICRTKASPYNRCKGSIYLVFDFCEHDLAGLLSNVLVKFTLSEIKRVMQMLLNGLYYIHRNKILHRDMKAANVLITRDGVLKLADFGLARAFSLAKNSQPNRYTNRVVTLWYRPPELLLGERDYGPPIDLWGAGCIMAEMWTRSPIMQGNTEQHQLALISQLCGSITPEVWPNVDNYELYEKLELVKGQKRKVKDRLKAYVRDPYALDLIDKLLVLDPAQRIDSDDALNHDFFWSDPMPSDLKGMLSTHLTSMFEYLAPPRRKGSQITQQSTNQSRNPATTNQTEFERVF

B1: His-Menin (protein)
chain: MGLKAAQKTLFPLRSIDDVVRLFAAELGREEPDLVLLSLVLGFVEHFLAVNRVIPTNVPELTFQPSPAPDPPGGLTYFPVADLSIIAALYARFTAQIRGAVDLSLYPREGGVSSRELVKKVSDVIWNSLSRSYFKDRAHIQSLFSFITGTKLDSSGVAFAVVGACQALGLRDVHLALSEDHAWVVFGPNGEQTAEVTWHGKGNEDRRGQTVNAGVAERSWLYLKGSYMRCDRKMEVAFMVCAINPSIDLHTDSLELLQLQQKLLWLLYDLGHLERYPMALGNLADLEELEPTPGRPDPLTLYHKGIASAKTYYRDEHIYPYMYLAGYHCRNRNVREALQAWADTATVIQDYNYCREDEEIYKEFFEVANDVIPNLLKEAASLLEAGEERPGEQSQGTQSQGSALQDPECFAHLLRFYDGICKWEEGSPTPVLHVGWATFLVQSLGRFEGQVRQKVRIVSREAEAAEAEEPWGEEAREGRRRGPRRESKPEEPPPPKKPALDKGLGTGQGAVSGPPRKPPGTVAGTARGPEGGSTAQVPAPTASPPPEGPVLTFQSEKMKGMKELLVATKINSSAIKLQLTAQSQVQMKKQKVSTPSDYTLSFLKRQRKGL
As for B1, the binding result is “no binding”.
